In patent US20220204610A1, “PROTEIN BINDERS FOR IRHOM2” (NEW YORK SOCIETY FOR THE RELIEF OF THE RUPTURED AND …, priority 2019, published 2022):
Primed or numbered codes have the meaning given here. Where no end group is shown, it is not given here. Side-chain parts run from the residue outwards. [ ]: non-standard residue; d: D form. The star is where a group is joined. PEG(11) = undeca(ethylene glycol) spacer (11 ethylene glycol units) between biotin and maleimide; Biotin = O=C1N[C@H]2[C@H](CS[C@H]2CCCCC(=O)*)N1; PEG11′ = not defined here; Abu = CC[C@H](N)C(=O)O

T1: peptide 1b (human iRhom1 juxtamembrane domain of TMD1, AA433-449), biotinylated (human)
T1 peptide: SQHETVDSVLRNRGVYEC([maleimide-PEG(11)-Biotin])

T2: peptide 9 (human iRhom2 C-terminus, AA819-839), biotinylated (human, X (position 20) = aminobutyrate in place of the internal cysteine; biotin-PEG(11)-maleimide on the added C-terminal cysteine)
T2 construct: also called immunization peptide 9
T2 peptide: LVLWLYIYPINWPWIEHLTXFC

T3: peptide 8 (human iRhom2 C-terminus, AA824-839), biotinylated (human)
T3 construct: also called immunization peptide 8
T3 peptide: YIYPINWPWIEHLT[Abu]FC([maleimide-PEG11′-Biotin])

T4: peptide 6 (human iRhom2 loop 1, AA508-548), biotinylated (human, not fully specified; X (position 9) = aminobutyrate in place of the internal cysteine; biotin-PEG(11)-maleimide on the natural terminal cysteine)
T4 construct: also called immunization peptide 6
T4 peptide: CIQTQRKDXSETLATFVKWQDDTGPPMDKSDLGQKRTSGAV

T5: peptide 3b (human iRhom1 juxtamembrane domain of TMD1, AA433-461), biotinylated (human, biotin-PEG(11)-maleimide on the added C-terminal cysteine)
T5 peptide: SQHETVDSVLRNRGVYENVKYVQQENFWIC

T6: peptide 10 (human iRhom2 C-terminus, AA824-856), biotinylated (human, oxidized to the cyclic disulfide; biotin-PEG(11)-maleimide on the added C-terminal cysteine)
T6 construct: also called immunization peptide 10
T6 peptide: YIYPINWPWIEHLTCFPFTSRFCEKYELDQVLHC

T7: peptide 5 (human iRhom2 loop 1, AA474-498), biotinylated (human, X (position 4) = aminobutyrate in place of the internal cysteine; biotin-PEG(11)-maleimide on the added N-terminal cysteine)
T7 construct: also called immunization peptide 5
T7 peptide: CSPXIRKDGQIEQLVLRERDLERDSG

T8: peptide 2b (human iRhom1 juxtamembrane domain of TMD1, AA428-449), biotinylated (human, biotin-PEG(11)-maleimide on the added C-terminal cysteine)
T8 peptide: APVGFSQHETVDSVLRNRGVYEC

T9: peptide 4b (human iRhom1 juxtamembrane domain of TMD1, AA428-461), biotinylated (human, biotin-PEG(11)-maleimide on the added C-terminal cysteine)
T9 peptide: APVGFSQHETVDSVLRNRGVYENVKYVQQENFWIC

T10: peptide 7 (human iRhom2 loop 1, AA578-600), biotinylated (human, X (position 16) = aminobutyrate in place of the internal cysteine; biotin-PEG(11)-maleimide on the natural terminal cysteine)
T10 construct: also called immunization peptide 7
T10 peptide: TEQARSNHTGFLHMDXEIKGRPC

T11: peptide 11 (human iRhom2 C-terminus, AA819-856), biotinylated (human, oxidized to the cyclic disulfide; biotin-PEG(11)-maleimide on the added C-terminal cysteine)
T11 construct: also called immunization peptide 11
T11 peptide: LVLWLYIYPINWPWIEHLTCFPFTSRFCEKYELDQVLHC

T12: human iRhom2 (inactive rhomboid protein 2, isoform 1, NP_078875.4) (human, UniProt Q6PJF5 1-856)
T12 sequence: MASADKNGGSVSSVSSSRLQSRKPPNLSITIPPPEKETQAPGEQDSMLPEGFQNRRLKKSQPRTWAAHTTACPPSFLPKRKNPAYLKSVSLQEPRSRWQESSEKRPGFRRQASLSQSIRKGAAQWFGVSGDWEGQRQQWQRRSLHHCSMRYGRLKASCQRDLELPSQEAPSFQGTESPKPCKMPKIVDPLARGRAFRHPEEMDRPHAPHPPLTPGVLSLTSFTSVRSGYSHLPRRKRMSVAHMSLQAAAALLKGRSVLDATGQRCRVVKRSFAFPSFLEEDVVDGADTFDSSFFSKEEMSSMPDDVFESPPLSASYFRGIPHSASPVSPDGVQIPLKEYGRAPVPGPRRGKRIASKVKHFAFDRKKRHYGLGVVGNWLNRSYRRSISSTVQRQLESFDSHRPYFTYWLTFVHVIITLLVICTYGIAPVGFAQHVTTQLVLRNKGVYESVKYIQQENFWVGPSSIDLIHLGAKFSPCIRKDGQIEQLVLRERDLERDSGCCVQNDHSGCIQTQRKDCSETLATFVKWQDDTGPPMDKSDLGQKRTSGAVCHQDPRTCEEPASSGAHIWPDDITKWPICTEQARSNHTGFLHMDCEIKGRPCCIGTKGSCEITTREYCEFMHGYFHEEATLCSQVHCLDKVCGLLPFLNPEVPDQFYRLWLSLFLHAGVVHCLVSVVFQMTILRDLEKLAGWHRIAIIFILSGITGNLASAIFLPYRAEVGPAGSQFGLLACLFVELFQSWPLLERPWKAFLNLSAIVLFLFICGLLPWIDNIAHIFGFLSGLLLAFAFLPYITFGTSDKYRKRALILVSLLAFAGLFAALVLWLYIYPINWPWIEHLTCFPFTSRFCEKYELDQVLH


Columns and labels:
[1] = tested on: LPS-induced release of endogenous TNFα from human THP-1 macrophage cells; assay: ELISA-based TNFα release assay with purified antibody (Example 11); format: cell-based; conditions: Homo sapiens; positive control at 10 μM final; THP-1 cells; LPS 50 ng/ml, 2 hours
Procedure: In the following study, ELISA-based TNFα release assays were performed to verify the inhibitory effects of the purified antibody 4H8-E3 of the invention on LPS-induced release of endogenous TNFα from human THP-1 macrophage cells.
In brief, on day 1, Nunc black MaxiSorp® 96-well plates (Thermo Fisher Scientific, USA) were coated overnight with 100 μl per well of mouse anti-human TNFα capture antibody (provided as part of the DuoSet ELISA kit) at 4 μg/ml TBS at 4° C. On day 2, the capture antibody solution was removed and MaxiSorp® plates were blocked with 300 μl per well of TBS, 1% BSA at room temperature for 3 hours. […] Using an infinite M1000 PRO (Tecan Group, Switzerland) microplate reader, the fluorescence of each well was collected at an excitation wavelength of 435 nm and an emission wavelength of 555 nm.

[2] = biological target: T1, peptide 1b (human iRhom1 juxtamembrane …); assay: peptide binding ELISA, biotinylated peptide coated
[3] = biological target: T2, peptide 9 (human iRhom2 C-terminus, …); assay: peptide binding ELISA, biotinylated peptide coated
[4] = biological target: T3, peptide 8 (human iRhom2 C-terminus, …); assay: peptide binding ELISA, biotinylated peptide coated
[5] = biological target: T4, peptide 6 (human iRhom2 loop 1, …); assay: peptide binding ELISA, biotinylated peptide coated
[6] = biological target: T5, peptide 3b (human iRhom1 juxtamembrane …); assay: peptide binding ELISA, biotinylated peptide coated
[7] = biological target: T6, peptide 10 (human iRhom2 C-terminus, …); assay: peptide binding ELISA, biotinylated peptide coated
[8] = biological target: T7, peptide 5 (human iRhom2 loop 1, …); assay: peptide binding ELISA, biotinylated peptide coated
[9] = biological target: T8, peptide 2b (human iRhom1 juxtamembrane …); assay: peptide binding ELISA, biotinylated peptide coated
[10] = biological target: T9, peptide 4b (human iRhom1 juxtamembrane …); assay: peptide binding ELISA, biotinylated peptide coated
[11] = biological target: T10, peptide 7 (human iRhom2 loop 1, …); assay: peptide binding ELISA, biotinylated peptide coated
[12] = biological target: T11, peptide 11 (human iRhom2 C-terminus, …); assay: peptide binding ELISA, biotinylated peptide coated
[13] = biological target: T12, human iRhom2 (inactive rhomboid protein …); assay: cell-based or functional assay

Molecule | inhibition at 10 µM [1] [%] | binding result [2] | binding result [3] | binding result [4] | binding result [5] | binding result [6] | binding result [7] | binding result [8] | binding result [9] | binding result [10] | binding result [11] | binding result [12] | IC50 on LPS-induced release of endogenous TNFα from THP-1 cells [13] [nM]
CNC(=O)[C@H](Cc1ccccc1)NC(=O)[C@H](CC(C)C)[C@H](CSc1cccs1)C(=O)NO [Batimastat, reference compound] | 92.5 |  |  |  |  |  |  |  |  |  |  |  | 
antibody 4H8-E3 of the invention (antibody, V domains shown, Mouse monoclonal antibody purified from the supernatant of hybridoma sub-clone 4H8-E3; also called anti JMD1 antibody 4H8-E3; purified antibody 4H8-E3) VH: EVQLQQSGPELVKPGASVKISCKASGYTFTDYYMNWVKQSHGKSLEWIGDINPNNGGTSYNQKFKGKATLTVDKSSNTAYMEFRSLTSEDSAVYYCARRGYYGVDYWGQGTTLTVSS VL: NIVMTQSPKSMSMSVGERVTLNCKASENVGTYVSWYQQKPEQSPKLLIFGASNRYTGVPDRFIGSGFATDFTLTISSVQAEDLADYHCGQSYSYPYTFGGGTKLEIK |  | no binding (tested: 3 µg/ml) | no binding (tested: 3 µg/ml) | no binding (tested: 3 µg/ml) | no binding (tested: 3 µg/ml) | no binding (tested: 3 µg/ml) | no binding (tested: 3 µg/ml) | no binding (tested: 3 µg/ml) | no binding (tested: 3 µg/ml) | no binding (tested: 3 µg/ml) | no binding (tested: 3 µg/ml) | no binding (tested: 3 µg/ml) | 6.48
